According to patent US20170326260A1 (CYTOMX THERAPEUTICS, published 2017):

Legend:
[1] = biological target: 3954-1204-c225v5 activatable anti-EGFR antibody activated with uPA; assay: ELISA; target antibody coated at 1 ug/ml, HRP anti-rabbit IgG, OD 450 nm
[2] = biological target: parental antibody C225v5; assay: as above

B1: antibody 85-1 (antibody, V domains shown)
VH: QSLEESGGHLVTPGTPLTLTCKASGFSLSSYCMSWVRQAPGKGLEWIGIIGGICSTYYAAWAKGRFTISKTSTTVDLKIASPTTEDTATYFCARPAYNSDPIWGPGTLVTVSS
VL: QVLTQTPSPVSVAVGGTVTINCQASQSVYNNNYLSWYQQKPGQPPKVLIYDAATLASGVSSRFRGSGSGTQFTLTISDVQCDDAATYYCLGEFSCGSADCNAFGGGTEVVVKG
notes: also called clone 85
B1: no binding [1]; no binding [2].
